Sequences and labels used below:
T1: amphyphisin SH3 (AMPH_HUMAN), P49418
T1 chain: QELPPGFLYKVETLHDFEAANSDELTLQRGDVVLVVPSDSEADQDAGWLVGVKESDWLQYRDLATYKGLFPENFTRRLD

One test deals with endophilin SH3 (SH3G2_HUMAN), Q99962. As to the kind of experiment: SPOT array.
LAQPLRRPSSVGEL [O43379 748-761] had a normalised SPOT signal, Boehringer light units (BLU); mean over the file's lines of this peptide of 45.3.
In turn, LAEELIRPERNTLV [Q14566 49-62] gave a normalised SPOT signal, Boehringer light units (BLU); mean over the file's lines of this peptide of -0.
LSHPLARPRRDAEP [P27539 244-257]: the normalised SPOT signal, Boehringer light units (BLU); mean over the file's lines of this peptide was 405.
The molecule LAARLRRPSPPEPW [Q9P1Y6 933-946] returned a normalised SPOT signal, Boehringer light units (BLU); mean over the file's lines of this peptide of 1180.
With LATQPKRPMSIPII [P16144 1316-1329], the normalised SPOT signal, Boehringer light units (BLU); mean over the file's lines of this peptide turned out to be 660.
Still for that read-out and setting: under LAEGINRPRKGHDA [O95985 371-384] stands 198; under LARIPNKPPPEYPG [Q15678 740-754], 20.4.
Molecule LASTPKRPSTSQTV [P12270 638-651] came in with a normalised SPOT signal, Boehringer light units (BLU); mean over the file's lines of this peptide of 78.
In turn, LANELRRPPLSYHN [P07996 308-321] displayed a normalised SPOT signal, Boehringer light units (BLU); mean over the file's lines of this peptide of 173.
In the case of KYSGPYKPPGILKQ [P20933 176-190], the normalised SPOT signal, Boehringer light units (BLU); mean over the file's lines of this peptide came to 47.7.
Turning to AAPLLRRPHGGAGP [O75086 179-192], the normalised SPOT signal, Boehringer light units (BLU); mean over the file's lines of this peptide stood at 102.
Still for that read-out and setting: under APANLERPVRYIRK [Q9NYB9 126-139] stands 180; under KVTAPRRPQRYSSG [Q9ULI4 1214-1227], 5620.
The molecule LALFLKRPKRSLFF [P41440 199-212] returned a normalised SPOT signal, Boehringer light units (BLU); mean over the file's lines of this peptide of 838.
For LAYFPPRPPLPPSV [Q96SL1 246-260], the normalised SPOT signal, Boehringer light units (BLU); mean over the file's lines of this peptide amounted to 2170.
The same measure, in the same setting: under LSGLIKRPGDLPEV [Q9UFP1 189-202] stands 49.5.
LSQDLIRPIRKTGT [Q9HBF6 199-212] showed a normalised SPOT signal, Boehringer light units (BLU); mean over the file's lines of this peptide of 276.
Consider LAHILRRPIIVYGV [Q9UGI0 529-542], for which the normalised SPOT signal, Boehringer light units (BLU); mean over the file's lines of this peptide amounted to 629.
On to KVHVPARPYRVLNN [P46013 726-739], for which the normalised SPOT signal, Boehringer light units (BLU); mean over the file's lines of this peptide was determined as 1730.
In the case of LASRPTRPPEPRHI [O94836 267-281], the normalised SPOT signal, Boehringer light units (BLU); mean over the file's lines of this peptide turned out to be 22900.
With KYSAPRRPTATGDY [O00501 199-212], the normalised SPOT signal, Boehringer light units (BLU); mean over the file's lines of this peptide came out at 36.9.
The molecule LSKTLRRPRSLLET [Q9C000 828-841] displayed a normalised SPOT signal, Boehringer light units (BLU); mean over the file's lines of this peptide of 51.9.
LAELPGRPPIFWPG [Q9C056 106-120]: the normalised SPOT signal, Boehringer light units (BLU); mean over the file's lines of this peptide was found to be 98.
The molecule APEALPRPRREGEL [Q9HA29 107-120] registered a normalised SPOT signal, Boehringer light units (BLU); mean over the file's lines of this peptide of 318.
In turn, LAITLRRPGSELEA [Q96KY5 32-45] came in with a normalised SPOT signal, Boehringer light units (BLU); mean over the file's lines of this peptide of 27.9.
Take LSNILRRPIIVISD [P21580 199-212]: the normalised SPOT signal, Boehringer light units (BLU); mean over the file's lines of this peptide was found to be 84.4.
Take LAELPQKPPPGDLP [Q9ULH1 746-760]: the normalised SPOT signal, Boehringer light units (BLU); mean over the file's lines of this peptide was 37.5.
The molecule LAHVLRRPIVVVAD [Q9NQ53 317-330] had a normalised SPOT signal, Boehringer light units (BLU); mean over the file's lines of this peptide of 37.7.

Another test deals with T1, amphyphisin SH3 (AMPH_HUMAN), P49418. As to the kind of experiment: SPOT array.
Turning to LAQPLRRPSSVGEL [O43379 748-761], the normalised SPOT signal, Boehringer light units (BLU); mean over the file's lines of this peptide worked out at 37.1.
On the same count and under the same terms, under LAEELIRPERNTLV [Q14566 49-62] stands 19.4; under LSHPLARPRRDAEP [P27539 244-257], 984; under LAARLRRPSPPEPW [Q9P1Y6 933-946], 77.5.
The molecule LATQPKRPMSIPII [P16144 1316-1329] showed a normalised SPOT signal, Boehringer light units (BLU); mean over the file's lines of this peptide of 23.2.
Molecule LAEGINRPRKGHDA [O95985 371-384] came in with a normalised SPOT signal, Boehringer light units (BLU); mean over the file's lines of this peptide of 99.3.
Turning to LARIPNKPPPEYPG [Q15678 740-754], the normalised SPOT signal, Boehringer light units (BLU); mean over the file's lines of this peptide amounted to 30.4.
Take LASTPKRPSTSQTV [P12270 638-651]: the normalised SPOT signal, Boehringer light units (BLU); mean over the file's lines of this peptide was determined as 32.
In the case of LANELRRPPLSYHN [P07996 308-321], the normalised SPOT signal, Boehringer light units (BLU); mean over the file's lines of this peptide turned out to be 34.3.
Same read-out and setting: under KYSGPYKPPGILKQ [P20933 176-190] stands 39.4.
Same read-out and setting: the same measure for AAPLLRRPHGGAGP [O75086 179-192]: 25.6; for APANLERPVRYIRK [Q9NYB9 126-139]: 3060.
For the molecule KVTAPRRPQRYSSG [Q9ULI4 1214-1227], the normalised SPOT signal, Boehringer light units (BLU); mean over the file's lines of this peptide came to 16200.
LALFLKRPKRSLFF [P41440 199-212] registered a normalised SPOT signal, Boehringer light units (BLU); mean over the file's lines of this peptide of 2280.
Turning to LAYFPPRPPLPPSV [Q96SL1 246-260], the normalised SPOT signal, Boehringer light units (BLU); mean over the file's lines of this peptide was found to be 48.7.
LSGLIKRPGDLPEV [Q9UFP1 189-202] registered a normalised SPOT signal, Boehringer light units (BLU); mean over the file's lines of this peptide of 21.9.
In the case of LSQDLIRPIRKTGT [Q9HBF6 199-212], the normalised SPOT signal, Boehringer light units (BLU); mean over the file's lines of this peptide turned out to be 1840.
LAHILRRPIIVYGV [Q9UGI0 529-542] came in with a normalised SPOT signal, Boehringer light units (BLU); mean over the file's lines of this peptide of 45.6.
For the molecule KVHVPARPYRVLNN [P46013 726-739], the normalised SPOT signal, Boehringer light units (BLU); mean over the file's lines of this peptide turned out to be 4080.
On to LASRPTRPPEPRHI [O94836 267-281], for which the normalised SPOT signal, Boehringer light units (BLU); mean over the file's lines of this peptide amounted to 1090.
On to KYSAPRRPTATGDY [O00501 199-212], for which the normalised SPOT signal, Boehringer light units (BLU); mean over the file's lines of this peptide stood at 46.4.
The molecule LSKTLRRPRSLLET [Q9C000 828-841] gave a normalised SPOT signal, Boehringer light units (BLU); mean over the file's lines of this peptide of 32.3.
In turn, LAELPGRPPIFWPG [Q9C056 106-120] showed a normalised SPOT signal, Boehringer light units (BLU); mean over the file's lines of this peptide of 53.5.
Molecule APEALPRPRREGEL [Q9HA29 107-120] showed a normalised SPOT signal, Boehringer light units (BLU); mean over the file's lines of this peptide of 708.
Take LAITLRRPGSELEA [Q96KY5 32-45]: the normalised SPOT signal, Boehringer light units (BLU); mean over the file's lines of this peptide amounted to 16.
LSNILRRPIIVISD [P21580 199-212] registered a normalised SPOT signal, Boehringer light units (BLU); mean over the file's lines of this peptide of 26.
As for LAELPQKPPPGDLP [Q9ULH1 746-760], the normalised SPOT signal, Boehringer light units (BLU); mean over the file's lines of this peptide was found to be 62.4.
The molecule LAHVLRRPIVVVAD [Q9NQ53 317-330] had a normalised SPOT signal, Boehringer light units (BLU); mean over the file's lines of this peptide of 37.4.
